Experimental findings from article PMC9342898 are described below.

Like-named read-outs stand apart in the source and are kept apart here.

For one experiment, the target named is F-actin (UniProt P68135). The experiment is described as follows: pull-down; actin isolation: 5 µM MVI ± 15 µM NDP52 with 5 µM F-actin (20% biotinylated), streptavidin Dynabeads, 150 mM NaCl, 50 mM Tris.HCl pH 7.5, 1 mM MgCl2, 1 mM DTT, RT; SDS–PAGE of pellet and supernatant.
Experiment [1] has as its target MVI_(TAIL(NI)). The experiment is described as follows: FRET or BRET; stopped flow; 1 µM FITC-MVI_TAIL(NI) and 1 µM AF555-MVI_TAIL(NI) pre-mixed, then mixed with an excess of unlabelled NDP52, pseudo-first order; 25°C, 50 mM Tris–HCl pH 7.5, 150 mM NaCl, 1 mM DTT, 3 mM MgCl2.
Experiment [2] deals with MVI_(TAIL(NI)). The experiment is described as above. This is another data set of the same source.
A further experiment concerns the target MVI_(814–1060). The experiment can be described thus: FRET or BRET; titration of Alexa555-CBD against 1 µM FITC-labelled N-terminal tail fragment, plate reader, 25°C, 50 mM Tris·HCl pH 7.5, 150 mM NaCl, 1 mM DTT; fitted to a quadratic binding equation.
In experiment [3] the target is MVI_(814–1091) (containing the LI). Described as above.
Experiment [4] has as its target MVI_(TAIL(NI)).
For experiment [5], the target named is MVI_(TAIL(NI)). The experiment is described as follows: FRET or BRET; stopped flow; 1 µM FITC-MVI_TAIL(NI) mixed with excess AF555-NDP52, pseudo-first order; 25°C, 50 mM Tris–HCl pH 7.5, 150 mM NaCl, 1 mM DTT, 3 mM MgCl2.
Experiment [6] addresses T1, nuclear dot protein 52 (NDP52), Q13137.
T1 chain: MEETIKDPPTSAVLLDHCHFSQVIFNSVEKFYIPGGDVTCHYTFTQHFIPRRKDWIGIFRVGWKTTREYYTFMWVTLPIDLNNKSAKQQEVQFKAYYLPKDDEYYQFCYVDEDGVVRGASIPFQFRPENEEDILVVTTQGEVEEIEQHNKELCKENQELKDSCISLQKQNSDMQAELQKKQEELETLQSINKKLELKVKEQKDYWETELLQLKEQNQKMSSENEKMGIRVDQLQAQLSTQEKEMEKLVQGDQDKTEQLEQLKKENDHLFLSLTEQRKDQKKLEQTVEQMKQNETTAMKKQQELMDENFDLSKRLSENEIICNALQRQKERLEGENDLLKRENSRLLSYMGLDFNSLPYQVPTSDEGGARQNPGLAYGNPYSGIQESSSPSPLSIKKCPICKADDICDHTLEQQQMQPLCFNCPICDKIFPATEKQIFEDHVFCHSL
The experiment can be described thus: SEC-MALS; 100 µl of 2 mg/ml protein on Superdex 200 (30 × 1 cm), 150 mM NaCl, 50 mM Tris.HCl pH 7.5, 1 mM DTT, room temperature. To be noted: remark: other sources report otherwise.

Take Full-length MVI NI (natural protein): in the experiment with Full-length MVI NI, the kcat of the steady-state actin-activated ATPase of full-length MVI in the presence of dimeric NDP52 was 2.11 s⁻¹ and the kcat of the steady-state actin-activated ATPase of full-length MVI in the presence of monomeric tDab2 was 2.55 s⁻¹. In the experiment with F-actin, the percent of MVI bound to actin was found to be 50% and the percent of MVI bound to actin (with an excess of NDP52) is > 80%.
MVI_(1–1060) (domain or fragment): in the experiment with MVI_(1–1060), the kcat of the steady-state actin-activated ATPase of MVI 1-1060 amounted to 2.79 s⁻¹.
With MVI_(TAIL(NI)) (domain or fragment), the observed rate constant of the FRET increase (dimerization after adding NDP52) in the experiment with MVI_(TAIL(NI)) [1] was 2.45 s⁻¹; with MVI_(TAIL(NI)) [2], 2.2 s⁻¹.
Take “Myosin VI cargo binding domain (CBD) (domain or fragment)”: the equilibrium dissociation constant (Kd) came out at 4.8 µM with MVI_(814–1060) and 5.98 µM in experiment [3].

B1: nuclear dot protein 52 (NDP52) (natural protein)
chain: T1 chain
modifications: Alexa Fluor 555 label in the stopped-flow FRET assay (site not stated); unlabelled elsewhere
B1: the rate constant of the fluorescence decrease of Cy3B-calmodulin bound to MVI TAIL(NI) on mixing with excess NDP52 (unfolding; independent of NDP52 concentration) in the experiment with MVI_(TAIL(NI)) [4] was 1.95 s⁻¹. In the experiment with MVI_(TAIL(NI)) [5], this molecule displayed a Kd of 1.94 µM; a koff of 3.2 s⁻¹; a kon of 1.65e+06 M⁻¹ s⁻¹; a rate constant of the second phase (unfolding after binding, independent of NDP52 concentration) of 2.2 s⁻¹.

B2: nuclear dot protein 52 (NDP52), Q13137 1-446 (natural protein)
chain: T1 chain
modifications: here or on the partner: Alexa Fluor 555 label in the stopped-flow FRET assay (site not stated); unlabelled elsewhere; Alexa Fluor 555 label in the stopped-flow FRET assay (site not stated); unlabelled elsewhere
For the molecule B2, the stoichiometry N in experiment [6] was found to be 2.
